Results published in PMC5056641.

Target: SRSF1 (ASF/SF2), unphosphorylated (human, UniProt Q07955 1-248)
Assay: filter binding

SRSF1 (ASF/SF2), unphosphorylated, sequence (Q07955 whole entry): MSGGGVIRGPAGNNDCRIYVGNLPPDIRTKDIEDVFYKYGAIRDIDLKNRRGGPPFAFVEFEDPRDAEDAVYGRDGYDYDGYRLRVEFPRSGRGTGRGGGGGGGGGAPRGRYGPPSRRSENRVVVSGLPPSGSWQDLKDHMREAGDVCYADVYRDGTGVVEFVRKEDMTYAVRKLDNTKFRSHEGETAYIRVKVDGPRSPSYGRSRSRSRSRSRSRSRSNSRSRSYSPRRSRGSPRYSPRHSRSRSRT

AGGCGGAGGAAGC (ssRNA) [Ron ESE 13mer]
apparent K (half saturation): 66 ± 2 nM
